This test has as its target ^15N-labeled intersectin 1-SH3A domain (UniProt Q15811). Briefly: NMR titration.
Chain of UniProt Q15811 (Q15811 740-806): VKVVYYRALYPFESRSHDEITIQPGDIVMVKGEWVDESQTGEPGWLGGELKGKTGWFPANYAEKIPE

Usually Kd stands for a measure of binding affinity in units of concentration. Read a low Kd as a tighter complex. “SH3A–B interdomain linker-derived peptide of intersectin 1, T832 and T839 phosphorylated” showed a Kd of 793 µM.
To “SH3A–B interdomain linker-derived peptide of intersectin 1, dephosphorylated” belongs 275 µM.

For the origin of these results see paper PMC5692602.
